# Results: PMC3654228 (Nature communications, 2012)
# T1: 6His-RBD-psiRRM-LRR (Homo sapiens, UniProt Q9UBU9 1-372)
# T1 sequence: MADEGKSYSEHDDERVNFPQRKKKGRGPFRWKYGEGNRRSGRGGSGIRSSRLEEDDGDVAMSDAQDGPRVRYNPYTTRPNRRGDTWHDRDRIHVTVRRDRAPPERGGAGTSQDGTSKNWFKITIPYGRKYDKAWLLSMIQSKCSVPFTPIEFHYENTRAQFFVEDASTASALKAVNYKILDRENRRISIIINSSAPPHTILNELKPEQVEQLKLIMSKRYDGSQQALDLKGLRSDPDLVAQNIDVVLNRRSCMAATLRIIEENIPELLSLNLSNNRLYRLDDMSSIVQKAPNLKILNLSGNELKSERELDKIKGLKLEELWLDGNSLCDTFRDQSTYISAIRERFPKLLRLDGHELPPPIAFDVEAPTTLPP
# T2: GST-RBD-psiRRM-LRR (Homo sapiens, UniProt Q9UBU9 1-372)
# T2 sequence: T1 sequence
# T3: Nxf1 (of the Nxf1:p15 used for gel filtration) (human, UniProt Q9UBU9 1-619)
# T3 sequence (looked up): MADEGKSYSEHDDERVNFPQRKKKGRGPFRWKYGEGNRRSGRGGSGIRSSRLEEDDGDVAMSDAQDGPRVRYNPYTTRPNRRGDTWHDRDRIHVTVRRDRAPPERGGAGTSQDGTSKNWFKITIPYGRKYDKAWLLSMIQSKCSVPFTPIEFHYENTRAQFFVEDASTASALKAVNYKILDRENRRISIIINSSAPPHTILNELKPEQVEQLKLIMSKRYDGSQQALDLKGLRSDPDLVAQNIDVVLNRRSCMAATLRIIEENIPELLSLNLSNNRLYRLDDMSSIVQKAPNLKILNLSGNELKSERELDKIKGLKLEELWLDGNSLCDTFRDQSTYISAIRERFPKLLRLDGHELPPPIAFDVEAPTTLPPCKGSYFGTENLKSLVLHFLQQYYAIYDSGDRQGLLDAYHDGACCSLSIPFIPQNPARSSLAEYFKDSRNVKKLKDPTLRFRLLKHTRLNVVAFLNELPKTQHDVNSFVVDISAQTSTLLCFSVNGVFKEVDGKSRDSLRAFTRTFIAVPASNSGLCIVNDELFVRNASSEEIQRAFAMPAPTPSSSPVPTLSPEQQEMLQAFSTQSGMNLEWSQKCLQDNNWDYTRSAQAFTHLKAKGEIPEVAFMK
# B1: 15-mer RNA (ssRNA)
# RNA: CAGUCGCAUAGUGCA
# B2: p15 (natural protein)
# chain: MASVDFKTYVDQACRAAEEFVNVYYTTMDKRRRLLSRLYMGTATLVWNGNAVSGQESLSEFFEMLPSSEFQISVVDCQPVHDEATPSQTTVLVVICGSVKFEGNKQRDFNQNFILTAQASPSNTVWKIASDCFRFQDWAS
# Experiments:
# 6His-RBD-psiRRM-LRR = target: T1, 6His-RBD-psiRRM-LRR; assay: UV crosslinking
# GST-Nxf1:p15;Aly = GST-Nxf1:p15;Aly (Homo sapiens;, UniProt Q9UBU9;Q9UKK6;Q9JJW6 1-619;1-140;1-218, |); assay: GST pulldown then UV crosslinking
# GST-Nxf1:p15;Aly;Thoc5 = GST-Nxf1:p15;Aly;Thoc5 (Homo sapiens;;Homo sapiens?, UniProt Q9UBU9;Q9UKK6;Q9JJW6;Q13769 1-619;1-140;1-218;1-683, ||); assay: GST pulldown then UV crosslinking
# Aly = Aly (UniProt Q9JJW6 1-218); assay: UV crosslinking
# GST-RBD-psiRRM-LRR = target: T2, GST-RBD-psiRRM-LRR; assay: UV crosslinking
# [1] = target: T3, Nxf1 (of the Nxf1:p15 used for gel …); assay: SEC
stoichiometry N [1],Binder,binding result (6His-RBD-psiRRM-LRR),binding result (GST-Nxf1:p15;Aly),binding result (GST-Nxf1:p15;Aly;Thoc5),binding result (Aly),binding result (GST-RBD-psiRRM-LRR)
,B1,binds,binds,binds,binds,binds
1,B2,,,,,
